Measured values as given in patent US20170296617.

T1: Pep25-P2 (ERTYSPS)
T1 chain: ERTYSPS

T2: peptide25 (ERTYSPSTAVRS)
T2 chain: ERTYSPSTAVRS


Tests used:
Pep25-P2 (ERTYSPS) = target: T1, Pep25-P2 (ERTYSPS)
peptide25 (ERTYSPSTAVRS) = target: T2, peptide25 (ERTYSPSTAVRS)

| Protein | [S6] phosphorylation ratio (pS6 peak area over pS6 plus S6), mass spectrometry of the ROCK reaction with substrate S6 (Pep25-P2 (ERTYSPS)) | conversion ratio of phosphorylated S6 substrate (mass spectrometry) (Pep25-P2 (ERTYSPS)) | ROCK autophosphorylation under high ATP levels (1 mM) (peptide25 (ERTYSPSTAVRS)) |
| --- | --- | --- | --- |
| ROCK1 (protein) MSTGDSFETRFEKMDNLLRDPKSEVNSDCLLDGLDALVYDLDFPALRKNKNIDNFLSRYKDTINKIRDLRMKAEDYEVVKVIGRGAFGEVQLVRHKSTRKVYAMKLLSKFEMIKRSDSAFFWEERDIMAFANSPWVVQLFYAFQDDRYLYMVMEYMPGGDLVNLMSNYDVPEKWARFYTAEVVLALDAIHSMGFIHRDVKPDNMLLDKSGHLKLADFGTCMKMNKEGMVRCDTAVGTPDYISPEVLKSQGGDGYYGRECDWWSVGVFLYEMLVGDTPFYADSLVGTYSKIMNHKNSLTFPDDNDISKEAKNLICAFLTDREVRLGRNGVEEIKRHLFFKNDQWAWETLRDTVAPVVPDLSSDIDTSNFDDLEEDKGEEETFPIPKAFVGNQLPFVGFTYYSNRRYLSSANPNDNRTSSNADKSLQESLQKTIYKLEEQLHNEMQLKDEMEQKCRTSNIKLDKIMKELDEEGNQRRNLESTVSQIEKEKMLLQHRINEYQRKAEQENEKRRNVENEVSTLKDQLEDLKKVSQNSQLANEKLSQLQKQLEEANDL | ratio falls with the dose: about 31 at 1 uM, about 29 at 10 uM, about 22 at 30 uM, about 18 at 100 uM; no lower plateau, less than half suppressed at 100 uM; the pS6 peak near m/z 3710 shrinks from 1 uM to 100 uM in the four spectra | Pep25-P2 repressed the phosphorylation of substrate S6 by ROCK |  |
| MBP-ROCK1 (ROCK1 catalytic domain linked to maltose binding protein) (protein) MSTGDSFETRFEKMDNLLRDPKSEVNSDCLLDGLDALVYDLDFPALRKNKNIDNFLSRYKDTINKIRDLRMKAEDYEVVKVIGRGAFGEVQLVRHKSTRKVYAMKLLSKFEMIKRSDSAFFWEERDIMAFANSPWVVQLFYAFQDDRYLYMVMEYMPGGDLVNLMSNYDVPEKWARFYTAEVVLALDAIHSMGFIHRDVKPDNMLLDKSGHLKLADFGTCMKMNKEGMVRCDTAVGTPDYISPEVLKSQGGDGYYGRECDWWSVGVFLYEMLVGDTPFYADSLVGTYSKIMNHKNSLTFPDDNDISKEAKNLICAFLTDREVRLGRNGVEEIKRHLFFKNDQWAWETLRDTVAPVVPDLSSDIDTSNFDDLEEDKGEEETFPIPKAFVGNQLPFVGFTYYSNRRYLSSANPNDNR |  |  | blocked ROCK autophosphorylation |
